US20060024296A1 (AbbVie / Abbott, published 2006)

T1: hu75/mu25 chimeric CS1-Fc (human/mouse chimera; human)
T1 construct: entry starts with the signal peptide; not shown: human gamma 1 Fc tag of the NIF Fc vector
T1 chain: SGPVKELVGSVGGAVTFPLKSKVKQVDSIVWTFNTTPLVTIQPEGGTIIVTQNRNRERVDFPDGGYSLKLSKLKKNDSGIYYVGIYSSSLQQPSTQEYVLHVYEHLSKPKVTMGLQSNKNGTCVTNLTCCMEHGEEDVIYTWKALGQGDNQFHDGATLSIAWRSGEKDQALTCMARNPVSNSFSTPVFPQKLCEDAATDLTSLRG


Columns and labels:
[1] = molecular target: T2, human CS1 (native, on K562 and Daudi cells) (human, UniProt Q9NQ25 23-335); assay: FACS, K562 cells
T2 construct: K562 and Daudi cells 'are known to express native CS1'; also called SLAMF7; CRACC

NSO-FcRn = molecular target: T3, NSO-FcRn; assay: FACS, NSO-FcRn cells
T3 construct: negative control transfectant; also called FcRn on NSO cells

[2] = molecular target: T4, CS1 ECD-myc-GPI fusion protein on NSO cells (human, UniProt Q9NQ25 23-226, glycosyl phosphatidylinositol linkage for cell surface expression); assay: FACS, NSO-CS1 cells
T4 construct: also called NSO-CS1

[3] = molecular target: T2, human CS1 (native, on K562 and Daudi …); assay: FACS, Daudi cells
[4] = molecular target: T5, CS1 ECD-Fcγ3 fusion protein (human, UniProt Q9NQ25 23-226); assay: direct binding ELISA, coated human CS1-human Fcγ3
T5 construct: also called CS1-G3; CS1-γ3; not shown: constant region of IgG3 (human Fc-γ3)

[5] = molecular target: T6, human CS1-Fc fusion protein (human, UniProt Q9NQ25 23-226, limits assumed); assay: SPR BIAcore 2000, antibody immobilised, CS1-Fc analyte, bivalent analyte model
T6 construct: analyte of the BIAcore experiment; not shown: Fc part

[6] = molecular target: T7, huCS1 (human CS1 extracellular domain, amino acids 1-227, fused to human gamma 1 Fc) (human, UniProt P01857-1 99-330 = IgG part); assay: sandwich ELISA, Fc-captured construct
T7 construct: domain: human Fc tag; secreted protein in 293/T supernatant; also called human CS1-Fc

[7] = molecular target: T1, hu75/mu25 chimeric CS1-Fc; assay: sandwich ELISA, Fc-captured construct
[8] = molecular target: T8, mu25/hu75 chimeric CS1-Fc (human/mouse chimera; human); assay: sandwich ELISA, Fc-captured construct
T8 construct: entry starts with the signal peptide; not shown: human gamma 1 Fc tag of the NIF Fc vector

[9] = molecular target: T6, human CS1-Fc fusion protein; assay: SPR BIAcore 2000
[10] = molecular target: T4, CS1 ECD-myc-GPI fusion protein on NSO …; assay: cell-based or functional assay

Row | Binder | FACS (MFI) [1] | FACS (MFI) (NSO-FcRn) | FACS (MFI) [2] | FACS (MFI) [3] | EC50 [4] | Kd [5] | binding result [6] | binding result [7] | binding result [8] | fold higher binding affinity than Luc34.1 [9] | fold higher binding affinity than Luc 63.2 [9] | cytotoxicity of the target cells (ADCC, LDH release, PBMC effectors 20:1) [10] | koff [5] | kon [5]
1 | Luc63 (antibody, IgG2a, V domains shown, mouse monoclonal, IgG2a; also called Lu 63; Luc63-1) VH: EVKLLESGGGLVQPGGSLKLSCAASGFDFSRYWMSWVRQAPGKGLEWIGEINPDSSTINYTPSLKDKFIISRDNAKNTLYLQMSKVRSEDTALYYCARPDGNYWYFDVWGAGTTVTVSS VL: DIVMTQSHKFMSTSVGDRVSITCKASQDVGIAVAWYQQKPGQSPKLLIYWASTRHTGVPDRFTGSGSGTDFTLTISNVQSEDLADYFCQQYSSYPYTFGGGTKLEIK | 15.8 MFI | < 5 MFI | 214 MFI | 12.7 MFI | 0.0661 µg/mL | 34.6 nM | – | – | – | – | – | – | – | –
2 | Luc69 (antibody, V domains shown, mouse monoclonal) VH: QVQLQQSGPELVKPGASVKISCKASGYAFSNSWMNWVKQRPGQGLEWIGRIYPGDGDTKSNGKFKGKATLTADKSSRAAYMQLSSLTSVDSAVYFCARSTMIMTGAMDYWGQGTSVTVSS VL: DIVMTQSHKFMSTSVGDRVIITCKASQDVSTAVAWYQQKPGQSPKLLIYSASFRYTGVPDRFTGSGSGTDFTFTVSSVQAEDLAVYYCQQHYSTPPYTFGGGTKLEIK | – | – | – | – | – | – | binds | binds | no binding (tested: 2 ug/ml) | – | – | – | – | –
3 | HuLuc63 (antibody, human IgG1, V domains shown, human IgG1/κ, transiently expressed in 293-H cells; also called humanized Luc63; HuLuc63 IgG1/κ antibody) VH: EVQLVESGGGLVQPGGSLRLSCAASGFDFSRYWMSWVRQAPGKGLEWIGEINPDSSTINYAPSLKDKFIISRDNAKNSLYLQMNSLRAEDTAVYYCARPDGNYWYFDVWGQGTLVTVSS VL: DIQMTQSPSSLSASVGDRVTITCKASQDVGIAVAWYQQKPGKVPKLLIYWASTRHTGVPDRFSGSGSGTDFTLTISSLQPEDVATYYCQQYSSYPYTFGQGTKVEIK | – | – | – | – | 0.0701 µg/mL | – | – | – | – | – | – | – | – | –
4 | Luc90 (antibody, IgG2b, V domains shown, mouse monoclonal, IgG2b; subclone Luc90.H1 used in BIAcore; also called Luc90-H1, D9; Luc90.H1) VH: QVQLQQPGAELVRPGASVKLSCKASGYSFTTYWMNWVKQRPGQGLEWIGMIHPSDSETRLNQKFKDKATLTVDKSSSTAYMQLSSPTSEDSAVYYCARSTMIATRAMDYWGQGTSVTVSS VL: DIVMTQSQKSMSTSVGDRVSITCKASQDVITGVAWYQQKPGQSPKLLIYSASYRYTGVPDRFTGSGSGTDFTFTISNVQAEDLAVYYCQQHYSTPLTFGAGTKLELK | 9.7 MFI | < 5 MFI | 237 MFI | 10.1 MFI | – | 6.29 nM | binds | binds | no binding (tested: 2 ug/ml) | 28 fold | 5.5 fold | ~50% | 0.000281 s⁻¹ | 45600 M⁻¹ s⁻¹
5 | Luc34 (antibody, IgG1, V domains shown, subclone Luc34.1 used in BIAcore; also called Luc34-1; Luc34-3) VH: QVQLQQSGAELARPGASVKLSCKASGYTFTSYWMQWVKQRPGQGLEWIGAIYPGDGDTRYTQKFKGKATLTADKSSSTAYMQLSSLASEDSAVYYCARGKVYYGSNPFAYWGQGTLVTVSA VL: DIQMTQSSSYLSVSLGGRVTITCKASDHINNWLAWYQQKPGNAPRLLISGATSLETGVPSRFSGSGSGKDYTLSITSLQTEDVATYYCQQYWSTPWTFGGGTKLEIK | 26.2 MFI | < 5 MFI | 127 MFI | 10.3 MFI | – | 173 nM | binds | binds | no binding (tested: 2 ug/ml) | – | – | – | 0.00127 s⁻¹ | 7480 M⁻¹ s⁻¹
